Reference: IntAct's records for PubMed 21102444

B1: Protein DOM34 (Saccharomyces cerevisiae), P33309 (parent)
chain: MKVISLKKDSFNKGGAVITLLPEDKEDLFTVYQIVDKDDELIFKKKFTSKLDEAGKKKSTDLVKLKIKVISEDFDMKDEYLKYKGVTVTDESGASNVDIPVGKYLSFTLDYVYPFTIIKQNFNKFMQKLLNEACNIEYKSDTAAVVLQEGIAHVCLVTSSSTILKQKIEYSMPKKKRTTDVLKFDEKTEKFYKAIYSAMKKDLNFDKLKTIILCSPGFYAKILMDKIFQYAEEEHNKKILDNKGMFFIAHCSTGYLQGINEVLKNPLYASKLQDTKYSKEIMVMDEFLLHLNKDDDKAWYGEKEVVKAAEYGAISYLLLTDKVLHSDNIAQREEYLKLMDSVESNGGKALVLSTLHSLGEELDQLTGIACILKYPLPDLDEDDGEE
partner: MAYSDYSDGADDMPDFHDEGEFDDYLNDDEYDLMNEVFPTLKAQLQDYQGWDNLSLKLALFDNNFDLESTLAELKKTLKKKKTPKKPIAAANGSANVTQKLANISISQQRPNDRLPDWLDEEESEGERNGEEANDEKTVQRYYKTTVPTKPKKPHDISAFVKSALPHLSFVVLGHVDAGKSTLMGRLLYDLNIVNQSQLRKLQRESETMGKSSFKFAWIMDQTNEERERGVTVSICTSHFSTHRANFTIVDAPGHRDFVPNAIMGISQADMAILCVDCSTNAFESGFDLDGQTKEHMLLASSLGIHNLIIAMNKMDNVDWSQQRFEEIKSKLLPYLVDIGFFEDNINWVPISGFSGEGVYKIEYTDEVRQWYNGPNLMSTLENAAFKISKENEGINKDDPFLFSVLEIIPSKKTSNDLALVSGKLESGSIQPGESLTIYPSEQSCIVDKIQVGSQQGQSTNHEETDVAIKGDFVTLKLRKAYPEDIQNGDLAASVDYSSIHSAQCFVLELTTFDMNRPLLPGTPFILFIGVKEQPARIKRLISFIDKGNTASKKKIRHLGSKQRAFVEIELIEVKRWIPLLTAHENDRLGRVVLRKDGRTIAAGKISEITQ
B2: Elongation factor 1 alpha-like protein (Saccharomyces cerevisiae), P32769 (parent)
chain: B1 partner
partner: B1 chain

Variants of: B1
Settings: with hbs1_yeast HBS1, P32769

Effect of a mutation on the interaction, disrupting interaction:
MKVISLKKDSFNKGGAVITLLPEDKEDLFTVYQIVDKDDELIFKKKFTSKLDEAGKKKSTDLVKLKIKVISEDFDMKDEYLKYKGVTVTDESGASNVDIPVGKYLSFTLDYVYPFTIIKQNFNKFMQKLLNEACNIEYKSDTAAVVLQEGIAHVCLVTSSSTILKQKIEYSMPKKKRTTDVLKFDEKTEKFYKAIYSAMKKDLNFDKLKTIILCSPGFYAKILMDKIFQYAEEEHNKKILDNKGMFFIAHCSTGYLQGINEVLKNPLYASKLQDTKYSKEIMVMDEFLLHLNKDDDKAWAGEKEVVKAAEYGAISYLLLTDKVLHSDNIAQREEYLKLMDSVESNGGKALVLSTLHSLGEALDQLTGIACILKYPLPDLDEDDGEE [Y300A;E361A]
MKVISLKKDSFNKGGAVITLLPEDKEDLFTVYQIVDKDDELIFKKKFTSKLDEAGKKKSTDLVKLKIKVISEDFDMKDEYLKYKGVTVTDESGASNVDIPVGKYLSFTLDYVYPFTIIKQNFNKFMQKLLNEACNIEYKSDTAAVVLQEGIAHVCLVTSSSTILKQKIEYSMPKKKRTTDVLKFDEKTEKFYKAIYSAMKKDLNFDKLKTIILCSPGFYAKILMDKIFQYAEEEHNKKILDNKGMFFIAHCSTGYLQGINEVLKNPLYASKLQDTKYSKEIMVMDEFLLHLNKDDDKAWYGEKEVVKAAEYGAISYLLLTDKVLHSDNIAQREEYLKLMDSVESNGGKALVLSTLHSLGEALDALTGIACILKYPLPDLDEDDGEE [E361A;Q364A]
MKVISLKKDSFNKGGAVITLLPEDKEDLFTVYQIVDKDDELIFKKKFTSKLDEAGKKKSTDLVKLKIKVISEDFDMKDEYLKYKGVTVTDESGASNVDIPVGKYLSFTLDYVYPFTIIKQNFNKFMQKLLNEACNIEYKSDTAAVVLQEGIAHVCLVTSSSTILKQKIEYSMPKKKRTTDVLKFDEKTEKFYKAIYSAMKKDLNFDKLKTIILCSPGFYAKILMDKIFQYAEEEHNKKILDNKGMFFIAHCSTGYLQGINEVLKNPLYASKLQDTKYSKEIMVMDEFLLHLNKDDDKAWYGEKEVVKAAEYGAISYLLLTDKVLHSDNIAQREEYLKLMDSVESNGGKALVLSTLHSLGERLDQLTGIACILKYPLPDLDEDDGEE [E361R]
MKVISLKKDSFNKGGAVITLLPEDKEDLFTVYQIVDKDDELIFKKKFTSKLDEAGKKKSTDLVKLKIKVISEDFDMKDEYLKYKGVTVTDESGASNVDIPVGKYLSFTLDYVYPFTIIKQNFNKFMQKLLNEACNIEYKSDTAAVVLQEGIAHVCLVTSSSTILKQKIEYSMPKKKRTTDVLKFDEKTEKFYKAIYSAMKKDLNFDKLKTIILCAAGAYAKILMDKIFQYAEEEHNKKILDNKGMFFIAHCSTGYLQGINEVLKNPLYASKLQDTKYSKEIMVMDEFLLHLNKDDDKAWYGEKEVVKAAEYGAISYLLLTDKVLHSDNIAQREEYLKLMDSVESNGGKALVLSTLHSLGEELDQLTGIACILKYPLPDLDEDDGEE [S215A;P216A;F218A]
MKVISLKKDSFNKGGAVITLLPEDKEDLFTVYQIVDKDDELIFKKKFTSKLDEAGKKKSTDLVKLKIKVISEDFDMKDEYLKYKGVTVTDESGASNVDIPVGKYLSFTLDYVYPFTIIKQNFNKFMQKLLNEACNIEYKSDTAAVVLQEGIAHVCLVTSSSTILKQKIEYSMPAAAATTDVLKFDEKTEKFYKAIYSAMKKDLNFDKLKTIILCSPGFYAKILMDKIFQYAEEEHNKKILDNKGMFFIAHCSTGYLQGINEVLKNPLYASKLQDTKYSKEIMVMDEFLLHLNKDDDKAWYGEKEVVKAAEYGAISYLLLTDKVLHSDNIAQREEYLKLMDSVESNGGKALVLSTLHSLGEELDQLTGIACILKYPLPDLDEDDGEE [K174A;K175A;K176A;R177A]

Variants of: B2
Settings: with dom34_yeast DOM34, P33309

Effect of a mutation on the interaction, disrupting interaction:
R256A;D257A;F258A
R517E
L520R
R557A;H558A
